# Test results: patent US20230265215A1 (OMEROS, published 2023)
# B1: mAb OMS858 (humanized anti-MASP-2 antibody) (antibody, V domains shown)
# VH: QVQLVQSGAEVKKPGASVKVSCKASGYTFTNHHMHWLRQAPGQGLEWIGDIDASDSETHYIEKFKDRATLTIDKSSSTAYMELSSLRSEDTAVYYCARGDITTTLRYFDVWGQGTLVTVSS
# VL: DIQLTQSPSSLSASVGDRVTITCSASSSVRYMYWYQQKPGKAPKLLIYDTSNLASGVPSRFSGSGSGTDNTLTISSLQPEDFATYYCQQWSSYPLTFGQGTKVEIKR
# notes: also called antibody OMS858; biotinylated OMS858
# Columns and labels:
# [1] = molecular target: cynomolgus monkey MASP-2 (endogenous, in cynomolgus monkey serum) (cynomolgus monkey, UniProt O00187 16-686 (human entry), limits assumed); experiment: cell-based or functional assay
# Sequence of cynomolgus monkey MASP-2 (endogenous, in cynomolgus monkey serum) (O00187 other isoform, or with tags, fused parts or gaps limits assumed): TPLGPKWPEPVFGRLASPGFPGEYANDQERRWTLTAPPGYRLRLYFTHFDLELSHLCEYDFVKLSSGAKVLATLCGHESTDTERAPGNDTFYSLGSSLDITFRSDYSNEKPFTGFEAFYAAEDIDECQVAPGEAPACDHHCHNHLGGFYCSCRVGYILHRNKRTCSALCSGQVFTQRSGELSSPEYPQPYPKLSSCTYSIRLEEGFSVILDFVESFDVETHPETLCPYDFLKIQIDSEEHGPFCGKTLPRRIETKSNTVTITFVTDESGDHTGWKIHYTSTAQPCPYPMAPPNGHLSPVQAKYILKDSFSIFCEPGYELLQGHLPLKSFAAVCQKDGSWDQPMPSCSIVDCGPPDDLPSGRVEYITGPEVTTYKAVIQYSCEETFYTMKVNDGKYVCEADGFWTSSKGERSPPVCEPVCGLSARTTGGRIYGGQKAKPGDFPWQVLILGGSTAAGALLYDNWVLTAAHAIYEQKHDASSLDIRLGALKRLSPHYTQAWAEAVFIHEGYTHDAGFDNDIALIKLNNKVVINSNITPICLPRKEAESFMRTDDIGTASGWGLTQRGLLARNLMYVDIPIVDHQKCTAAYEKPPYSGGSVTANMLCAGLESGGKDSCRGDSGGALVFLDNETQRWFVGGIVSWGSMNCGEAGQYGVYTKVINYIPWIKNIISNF
# [2] = molecular target: mouse MASP-2 (endogenous, in mouse serum or hirudin plasma) (mouse, UniProt Q91WP0 20-685); experiment: cell-based or functional assay
# Sequence of mouse MASP-2 (endogenous, in mouse serum or hirudin plasma) (Q91WP0 20-685 limits assumed): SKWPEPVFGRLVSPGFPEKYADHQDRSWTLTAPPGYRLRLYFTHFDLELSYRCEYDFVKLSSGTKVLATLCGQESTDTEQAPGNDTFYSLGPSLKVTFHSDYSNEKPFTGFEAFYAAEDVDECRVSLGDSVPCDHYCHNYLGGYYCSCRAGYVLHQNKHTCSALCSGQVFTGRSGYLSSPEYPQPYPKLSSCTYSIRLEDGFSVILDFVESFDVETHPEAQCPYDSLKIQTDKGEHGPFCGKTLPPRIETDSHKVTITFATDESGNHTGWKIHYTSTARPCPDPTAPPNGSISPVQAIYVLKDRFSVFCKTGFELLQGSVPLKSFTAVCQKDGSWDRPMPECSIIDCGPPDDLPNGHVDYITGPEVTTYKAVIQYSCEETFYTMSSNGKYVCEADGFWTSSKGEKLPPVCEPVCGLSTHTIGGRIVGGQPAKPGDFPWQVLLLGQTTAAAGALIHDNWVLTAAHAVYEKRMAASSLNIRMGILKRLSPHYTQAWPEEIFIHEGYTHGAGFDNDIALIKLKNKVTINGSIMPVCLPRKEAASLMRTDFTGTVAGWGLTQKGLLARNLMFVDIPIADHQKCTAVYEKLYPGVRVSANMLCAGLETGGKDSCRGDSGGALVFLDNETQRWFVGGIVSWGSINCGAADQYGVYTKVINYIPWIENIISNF
# [3] = molecular target: dog MASP-2 (endogenous, in dog serum) (dog); experiment: cell-based or functional assay
# Sequence of dog MASP-2 (endogenous, in dog serum) (dog) (chain, as listed by the source limits assumed): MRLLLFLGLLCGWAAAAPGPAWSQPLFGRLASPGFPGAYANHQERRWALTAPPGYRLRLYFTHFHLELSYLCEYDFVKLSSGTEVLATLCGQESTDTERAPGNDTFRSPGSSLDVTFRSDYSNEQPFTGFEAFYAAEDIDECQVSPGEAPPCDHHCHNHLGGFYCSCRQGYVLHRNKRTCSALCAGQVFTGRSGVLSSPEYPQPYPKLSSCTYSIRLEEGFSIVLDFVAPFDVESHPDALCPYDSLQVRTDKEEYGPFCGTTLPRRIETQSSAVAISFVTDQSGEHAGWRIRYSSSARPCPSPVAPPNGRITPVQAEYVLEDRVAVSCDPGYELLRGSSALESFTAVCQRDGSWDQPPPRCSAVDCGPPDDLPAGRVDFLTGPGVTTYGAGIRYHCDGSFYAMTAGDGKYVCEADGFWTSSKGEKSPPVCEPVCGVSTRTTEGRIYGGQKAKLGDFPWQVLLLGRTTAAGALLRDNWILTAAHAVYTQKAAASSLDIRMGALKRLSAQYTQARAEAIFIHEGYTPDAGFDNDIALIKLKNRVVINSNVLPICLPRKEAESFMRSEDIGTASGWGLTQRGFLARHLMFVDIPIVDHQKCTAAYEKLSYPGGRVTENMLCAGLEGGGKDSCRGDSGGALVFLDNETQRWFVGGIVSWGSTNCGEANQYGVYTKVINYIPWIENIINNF
# [4] = molecular target: rabbit MASP-2 (endogenous, in rabbit serum) (rabbit); experiment: cell-based or functional assay
# [5] = molecular target: T1, Catalytically active MASP-2 (human) (human, UniProt O00187 16-686, limits assumed); experiment: SPR, immobilized OMS858, fluid phase MASP-2
# T1 construct: also called catalytically active form of human MASP-2
# T1 sequence (O00187 16-686 limits assumed): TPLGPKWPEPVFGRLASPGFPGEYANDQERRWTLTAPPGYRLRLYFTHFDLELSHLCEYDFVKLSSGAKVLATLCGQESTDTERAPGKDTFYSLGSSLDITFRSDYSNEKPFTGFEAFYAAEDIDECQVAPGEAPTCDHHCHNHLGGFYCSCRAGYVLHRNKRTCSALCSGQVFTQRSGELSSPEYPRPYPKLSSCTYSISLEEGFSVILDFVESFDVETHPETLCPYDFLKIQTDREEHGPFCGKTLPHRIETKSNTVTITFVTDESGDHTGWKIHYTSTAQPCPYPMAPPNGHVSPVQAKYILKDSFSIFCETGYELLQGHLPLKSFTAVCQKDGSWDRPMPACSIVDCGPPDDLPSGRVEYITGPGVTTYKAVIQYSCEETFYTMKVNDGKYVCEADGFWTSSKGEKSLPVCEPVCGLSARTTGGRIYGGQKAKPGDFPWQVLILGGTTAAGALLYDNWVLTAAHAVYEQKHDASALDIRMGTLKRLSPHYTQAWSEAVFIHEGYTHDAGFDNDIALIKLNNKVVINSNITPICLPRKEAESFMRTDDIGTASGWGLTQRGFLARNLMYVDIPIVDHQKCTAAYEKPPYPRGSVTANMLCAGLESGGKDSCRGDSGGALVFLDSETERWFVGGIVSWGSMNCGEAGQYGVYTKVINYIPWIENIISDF
# [6] = molecular target: T2, Zymogen MASP-2 (human) (human, UniProt O00187 16-686, limits assumed); experiment: SPR, immobilized OMS858, fluid phase MASP-2
# T2 construct: also called zymogen form of human MASP-2
# T2 sequence (O00187 16-686 limits assumed): as above
binder,measurement,setting,value
B1,"lectin-dependent C4 activation in 50% cynomolgus monkey serum, IC50, Experiment 1",[1],42.8 nM
same,"lectin-dependent C4 activation in 50% cynomolgus monkey serum, IC50, Experiment 2",[1],44 nM
same,"lectin-dependent C4 activation in 50% cynomolgus monkey serum, IC50, Experiment 3",[1],45.5 nM
same,"lectin-dependent C4 activation in 50% cynomolgus monkey serum, IC50, MEAN",[1],44.1 nM
same,"lectin-dependent C4 activation in 50% mouse hirudin plasma, IC50, Experiment 1",[2],9.59 nM
same,"lectin-dependent C4 activation in 50% mouse hirudin plasma, IC50, Experiment 2",[2],11.2 nM
same,"lectin-dependent C4 activation in 50% mouse hirudin plasma, IC50, Experiment 3",[2],14.8 nM
same,"lectin-dependent C4 activation in 50% mouse hirudin plasma, IC50, MEAN",[2],11.9 nM
same,"lectin-dependent C4 activation in 50% dog serum, IC50, Experiment 1",[3],> 500 nM
same,"lectin-dependent C4 activation in 50% dog serum, IC50, Experiment 2",[3],> 500 nM
same,"lectin-dependent C4 activation in 50% dog serum, IC50, Experiment 3",[3],> 500 nM
same,"lectin-dependent C4 activation in 50% rabbit serum, IC50, Experiment 1",[4],> 500 nM
same,"lectin-dependent C4 activation in 50% rabbit serum, IC50, Experiment 2",[4],> 500 nM
same,"lectin-dependent C4 activation in 50% rabbit serum, IC50, Experiment 3",[4],> 500 nM
same,Kd,[5],0.287 nM
same,koff,[5],0.00971 s⁻¹
same,kon,[5],3.38e+07 M⁻¹ s⁻¹
same,Kd,[6],0.715 nM
same,koff,[6],0.000172 s⁻¹
same,kon,[6],241000 M⁻¹ s⁻¹
